Assay results as given in US20080242590A1, “New Method 706” (ASTRAZENECA AB, priority 2007, published 2008).

Experiments:
[1] = system: human Aβ42; assay: Human Aβ42 in plasma, time-response after single i.v. dose (Example 26); format: in vivo, APPSWE-tg mice; conditions: 25 mg/kg single i.v.
[2] = system: human Aβ40; assay: Human Aβ40 in plasma, time-response after single i.v. dose (Example 26); format: in vivo, APPSWE-tg mice; conditions: 25 mg/kg single i.v.
From the text: (§1) The objective of this study was to evaluate the time-response relationship of the mouse version of the Fc-Nep (mFc-Nep, SEQ ID NO 14) in plasma of female APPSWE-tg mice and C57BL/6 mice after a single dose. The specific purpose is to find out how long the reducing effect of mFc-Nep on Aβ stays in the plasma, and to correlate the effect to the level of exposure of test compound in plasma. The γ-secretase inhibitor M-550426 is included as a positive compound.
(§2) 21-23 weeks old female APPSWE-tg mice and 24 weeks old female C57BL/6 mice (6 mice/group) received vehicle or mFc-Nep at 5 or 25 mg/kg as a single intravenous injection and Aβ40 was analysed at different time points after injection (between 1.5-336 hours, i.e., up to 2 weeks). M-550426 was administrated per orally at 300 μmol/kg 3 hours before termination. For both mouse models, APPSWE-tg and C57BL/6, a positive control and blank groups were included. The following groups were included for the APPSWE-tg mice: 25 mg/kg: 1.5, 72, 168 and 336 hours; 5 mg/kg): 336 hours (2 weeks). For C57BL/6 mice: 25 mg/kg: 168 and 336 hours; 5 mg/kg): 1.5, 168 and 336 hours. […]

[3] = Plasma exposure in C57BL/6 mice (Example 26); format: in vivo; conditions: 25 mg/kg single injection
Procedure: (§3) 21-23 weeks old female APPSWE-tg mice and 24 weeks old female C57BL/6 mice (6 mice/group) received vehicle or mFc-Nep at 5 or 25 mg/kg as a single intravenous injection and Aβ40 was analysed at different time points after injection (between 1.5-336 hours, i.e., up to 2 weeks). M-550426 was administrated per orally at 300 μmol/kg 3 hours before termination. For both mouse models, APPSWE-tg and C57BL/6, a positive control and blank groups were included. The following groups were included for the APPSWE-tg mice: 25 mg/kg: 1.5, 72, 168 and 336 hours; 5 mg/kg): 336 hours (2 weeks). For C57BL/6 mice: 25 mg/kg: 168 and 336 hours; 5 mg/kg): 1.5, 168 and 336 hours. […] Blood collection and plasma processing were basically as described in Example 25 The analysis of mouse Aβ40 levels in plasma of C57BL6 mice was as described in Example 25 The analysis of human Aβ40 and Aβ42 levels in plasma of APPSWE-tg mice was as described in Example 25 (as described in the last APP-tg study).

[4] = Plasma exposure in APPSWE-tg mice (Example 26); format: in vivo; conditions: single intravenous injection of 25 mg/kg
Procedure: as §3

[5] = system: amyloid β 1-40; assay: Degradation of Aβ 1-40 in APPswe-tg mouse plasma pool (Example 28); format: biochemical; conditions: room temperature, 1 hour
Procedure: Mouse plasma collected from 9 animals was stored at −70° C. Plasma was thawed and pooled just before the experiment. Aβ 1-40 and 1-42 in plasma pool was degraded by human Fc-Nep or mouse Fc-Nep with corresponding vehicles (50 mM Tris-HCl, 150 mM NaCl pH 7.5). […] The enzymatic reaction was stopped by adding Phosphoramidone (10 μM final concentration).
After degradation, before concentration of amyloid β 1-40 in tg-mouse plasma pool was measured using ELISA kit (Biosource; KHB3481), the plasma samples were diluted 20 times in standard diluent buffer, according to manufacturers instructions.

[6] = system: mouse Aβ40; assay: Mouse Aβ40 in plasma, time-response after single i.v. dose (Example 26); format: in vivo, C57BL/6 mice; conditions: 25 mg/kg single injection, 2 weeks (336 hours)
From the text: as §1, §2

[7] = system: amyloid β 1-40; assay: Degradation of Aβ 1-40 in human plasma pool (Example 28); format: biochemical; conditions: room temperature, 1 hour
Procedure: (§4) Blood from twelve individuals (6 females and 6 males) were collected into pre-chilled heparin-plasma tubes at the healthcare centre (AstraZeneca) at three different time points. Plasma was prepared by centrifugation at 2500×g for 20 min at 4° C. Plasma samples were collected and transferred to pre-chilled polypropylene tubes and immediately frozen and stored at −70° C. prior to use. Plasma was thawed and pooled from 12 individuals just before the experiment. Aβ 1-40 and 1-42 in plasma pool was degraded by human Fc-Nep or mouse Fc-Nep with corresponding vehicles (50 mM Tris-HCl, 150 mM NaCl pH 7.5). The following final concentrations of the Fc-Nep constructs were used, 100, 32, 10, 3.2, 1, 0.3, 0.1 and […] and the degradation occurred at room temperature for 1 hour while shaking on an orbital shaker. The enzymatic reaction was stopped by adding Phosphoramidone (10 μM final concentration). Concentration of amyloid β 1-40 in human plasma pool was measured using ELISA kit (Biosource; KHB3481) according to the manufacturers instructions.

[8] = Observations of animal health (Example 26); format: in vivo, APPSWE-tg mice and C57BL/6 mice; conditions: 5 or 25 mg/kg single i.v., up to 336 hours
Procedure: as §3

[9] = system: Aβ 1-42; assay: Degradation of Aβ 1-42 in APPswe-tg mouse plasma pool (Example 28); format: biochemical; conditions: room temperature, 1 hour
Procedure: Mouse plasma collected from 9 animals was stored at −70° C. Plasma was thawed and pooled just before the experiment. Aβ 1-40 and 1-42 in plasma pool was degraded by human Fc-Nep or mouse Fc-Nep with corresponding vehicles (50 mM Tris-HCl, 150 mM NaCl pH 7.5). The following final concentrations of the Fc-Nep constructs were used, 100, 32, 10, 3.2, 1, 0.3, 0.1 and […] and the degradation occurred at room temperature for 1 hour while shaking on an orbital shaker. The enzymatic reaction was stopped by adding Phosphoramidone (10 μM final concentration).
After degradation, a final concentration of 4.7 mM EDTA was added to the tg-mouse plasma tubes and the plasma samples were diluted 3 times in sample diluent, before the concentration of Aβ42 was analyzed using ELISA kit Innotest® β-Amyloid1-42 (Innogenetics, lot#177462, ref#80177) according to the manufacturers instructions. The highest concentration (100 μg/ml) of human Fc-Nep and mouse Fc-Nep degraded human plasma amyloid β 1-40 by 71% and 77%, respectively and Aβ 1-42 by 34% and 53%, respectively, as compared to plasma without Fc-Nep treatment.

[10] = system: Aβ 1-42; assay: Degradation of Aβ 1-42 in human plasma pool (Example 28); format: biochemical; conditions: room temperature, 1 hour
Procedure: as §4
A final concentration of 4.7 mM EDTA was added to the tubes before the concentration of Aβ42 was analyzed using ELISA kit Innotest® β-Amyloid1-42 (Innogenetics, lot#177462, ref#80177) according to the manufacturers instructions.

[11] = highest concentration 100 μg/ml

B1: mFc-Nep: mouse version of the Fc-Nep, SEQ ID NO 14 (protein, listed as Mus musculus)
chain: METDTLLLWVLLLWVPGSTGDVPRDCGCKPCICTVPPVSSVFIFPPKPKDVLTITLTPKVTCVVVAISKDDPEVQFSWFVDDVEVHTAQTQPREEQFASTFRSVSELPIMHQDWLNGKEFKCRVNSAAFPAPIEKTISKTKGRPKAPQVYTIPPPKEQMAKDKVSLTCMITDFFPEDITVEWQWNGQPAENYKNTQPIMNTNGSYFVYSKLNVQKSNWEAGNTFTCSVLHEGLHNHHTEKSLSHSPGKYDDGICKSSDCIKSAARLIQNMDASVEPCTDFFKYACGGWLKRNVIPETSSRYSNFDILRDELEVILKDVLQEPKTEDIVAVQKAKTLYRSCINESAIDSRGGQPLLKLLPDIYGWPVASDNWDQTYGTSWTAEKSIAQLNSKYGKKVLINFFVGTDDKNSTQHIIHFDQPRLGLPSRDYYECTGIYKEACTAYVDFMISVARLIRQEQSLPIDENQLSLEMNKVMELEKEIANATTKPEDRNDPMLLYNKMTLAKLQNNFSLEVNGKSFSWSNFTNEIMSTVNINIQNEEEVVVYAPEYLTKLKPILTKYSPRDLQNLMSWRFIMDLVSSLSRNYKESRNAFRKALYGTTSETATWRRCANYVNGNMENAVGRLYVEAAFAGESKHVVEDLIAQIREVFIQTLDDLTWMDAETKKKAEEKALAIKERIGYPDDIISNENKLNNEYLELNYREDEYFENIIQNLKFSQSKQLKKLREKVDKDEWISGAAVVNAFYSSGRNQIVFPAGILQPPFFSAQQSNSLNYGGIGMVIGHEITHGFDDNGRNFNKDGDLVDWWTQQSANNFKDQSQCMVYQYGNFSWDLAGGQHLNGINTLGENIADNGGIGQAYRAYQNYVKKNGEEKLLPGLDLNHKQLFFLNFAQVWCGTYRPEYAVNSIKTDVHSPGNFRIIGTLQNSAEFADAFHCRKNSYMNPERKCRVW
Which results are given for B1?
Aβ42 levels compared to vehicle ([1]; 1.5 hours): 87%; Aβ42 levels compared to vehicle ([1]; two weeks (336 hours)): 44%; Aβ40 levels compared to vehicle ([2]; 1.5 hours): 91%; Aβ40 levels compared to vehicle ([2]; two weeks (336 hours)): 58%; plasma half-life [3]: long; Plasma exposure ([3]; 336 hours): 48 µg/mL; Plasma exposure ([4]; 1.5 hours): 299 µg/mL; Plasma exposure ([4]; 336 hours): 60 µg/mL; Degradation of amyloid β 1-40 compared to plasma without treatment [5, 11]: 77%; EC50 [5]: 340 nM; Reduction of mouse Aβ40 levels in plasma compared to vehicle [6]: 73%; Degradation of amyloid β 1-40 compared to plasma without treatment [7, 11]: 71%; EC50 [7]: 400 nM; Observations of the animal health [8]: no overt adverse effects; Degradation of Aβ 1-42 compared to plasma without treatment [9, 11]: 53%; EC50 [9]: 820 nM; Degradation of Aβ 1-42 compared to plasma without treatment [10, 11]: 19%; EC50 [10]: 180 nM
